Patent publication US20120219559A1 (Johns Hopkins, published 2012)

B2: ICOS (receptor, Mus musculus, UniProt Q9WVS0 21-200, looked up)
membrane protein: EINGSADHRMFSFHNGGVQISCKYPETVQQLKMRLFREREVLCELTKTKGSGNAVSIKNPMLCLYHLSNNSVSFFLNNPDSSQGSYYFCSLSIFDPPPFQERNLSGGYLHIYESQLCCQLKLWLPVGCAAFVVVLLFGCILIIWFSKKKYGSSVHDPNSEYMFMAAVNTNKKSRLAGVTS
B6: B7-DCIg (Fc fusion, Mus musculus, UniProt Q9WUL5 20-219, looked up)
fusion protein: LFTVTAPKEVYTVDVGSSVSLECDFDRRECTELEGIRASLQKVENDTSLQSERATLLEEQLPLGKALFHIPSVQVRDSGQYRCLVICGAAWDYKYLTVKVKASYMRIDTRILEVPGTGEVQLTCQARGYPLAEVSWQNVSVPANTSHIRTPEGLYQVTSVLRLKPQPSRNFSCMFWNAHMKELTSAIIDPLSRMEPKVPR
notes: Ig fusion protein purchased from R&D systems; also called mouse B7-DCIg fusion protein

Columns and labels:
[1] = molecular target: B2; test: CDS well image, 293T cells transfected with the mouse gene, stained with the mouse fusion protein
[2] = molecular target: CTLA-4 (Mus musculus, UniProt P09793); test: as above
[3] = molecular target: T1, PD-1 (Mus musculus, UniProt Q02242); test: as above
T1 sequence (membrane protein, looked up): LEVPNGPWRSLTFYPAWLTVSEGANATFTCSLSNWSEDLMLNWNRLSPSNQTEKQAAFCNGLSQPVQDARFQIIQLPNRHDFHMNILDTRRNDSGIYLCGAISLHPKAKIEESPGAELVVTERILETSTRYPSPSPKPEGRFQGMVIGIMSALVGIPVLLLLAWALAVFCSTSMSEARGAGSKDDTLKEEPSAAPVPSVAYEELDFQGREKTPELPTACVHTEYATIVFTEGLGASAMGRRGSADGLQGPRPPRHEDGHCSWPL

[4] = molecular target: B7-H1 (Mus musculus, UniProt Q9EP73); test: as above
Sequence of B7-H1 (Q9EP73 19-290 limits assumed): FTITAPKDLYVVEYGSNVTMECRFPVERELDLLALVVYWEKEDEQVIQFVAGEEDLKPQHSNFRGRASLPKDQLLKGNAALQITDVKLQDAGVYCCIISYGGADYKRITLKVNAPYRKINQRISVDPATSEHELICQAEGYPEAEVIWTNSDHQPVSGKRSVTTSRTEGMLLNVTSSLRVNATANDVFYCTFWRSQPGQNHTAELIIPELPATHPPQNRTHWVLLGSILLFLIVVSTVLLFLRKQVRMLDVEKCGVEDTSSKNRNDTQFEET

[5] = molecular target: T2, mouse B7-H2, full length, expressed on 293T cells (mouse, UniProt Q9JHJ8 44-322); test: as above
T2 construct: whole, on cells
T2 sequence (looked up): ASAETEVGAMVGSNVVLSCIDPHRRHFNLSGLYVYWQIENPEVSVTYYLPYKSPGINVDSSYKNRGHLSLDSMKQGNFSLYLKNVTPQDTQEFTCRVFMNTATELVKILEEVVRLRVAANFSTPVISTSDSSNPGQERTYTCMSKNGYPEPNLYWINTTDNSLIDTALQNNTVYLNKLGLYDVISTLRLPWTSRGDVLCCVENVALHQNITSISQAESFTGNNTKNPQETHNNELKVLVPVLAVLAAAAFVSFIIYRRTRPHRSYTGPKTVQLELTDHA

[6] = molecular target: T3, CD28 (Mus musculus, UniProt P31041); test: as above
T3 sequence (membrane protein, looked up): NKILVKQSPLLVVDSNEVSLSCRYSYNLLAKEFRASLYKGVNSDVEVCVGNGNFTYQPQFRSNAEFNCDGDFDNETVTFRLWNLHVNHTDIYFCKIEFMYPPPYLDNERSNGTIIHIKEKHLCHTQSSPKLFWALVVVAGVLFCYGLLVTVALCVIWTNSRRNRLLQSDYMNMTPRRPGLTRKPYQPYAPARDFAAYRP

[7] = molecular target: T4, B7-DC (Mus musculus, UniProt Q9WUL5); test: as above
T4 sequence (membrane protein, looked up): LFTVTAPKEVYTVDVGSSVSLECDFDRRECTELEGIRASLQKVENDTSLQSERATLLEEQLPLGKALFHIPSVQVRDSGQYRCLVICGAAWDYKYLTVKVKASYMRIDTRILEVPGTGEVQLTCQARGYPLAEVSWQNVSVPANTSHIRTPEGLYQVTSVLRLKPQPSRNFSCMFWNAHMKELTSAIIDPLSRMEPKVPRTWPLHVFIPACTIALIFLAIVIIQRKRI

[8] = molecular target: B6; test: as above
[9] = molecular target: T5, B7-H1Ig (Mus musculus, UniProt Q9EP73); test: as above
T5 construct: Ig fusion protein purchased from R&D systems; also called mouse B7-H1Ig fusion protein
T5 sequence (Q9EP73 19-238 limits assumed): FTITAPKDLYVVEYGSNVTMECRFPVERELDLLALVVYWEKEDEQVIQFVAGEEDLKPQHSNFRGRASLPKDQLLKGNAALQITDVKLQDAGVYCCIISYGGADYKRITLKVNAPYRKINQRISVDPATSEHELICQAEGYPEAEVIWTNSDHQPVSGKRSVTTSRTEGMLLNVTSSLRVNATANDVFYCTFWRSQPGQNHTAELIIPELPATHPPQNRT

[10] = molecular target: T6, human B7-2 (CD86, B70) expressed on 293T cells (human, UniProt P42081 24-329); test: CDS well image, 293T cells transfected with the human gene, stained with the human fusion protein
T6 construct: whole, on cells
T6 sequence (looked up): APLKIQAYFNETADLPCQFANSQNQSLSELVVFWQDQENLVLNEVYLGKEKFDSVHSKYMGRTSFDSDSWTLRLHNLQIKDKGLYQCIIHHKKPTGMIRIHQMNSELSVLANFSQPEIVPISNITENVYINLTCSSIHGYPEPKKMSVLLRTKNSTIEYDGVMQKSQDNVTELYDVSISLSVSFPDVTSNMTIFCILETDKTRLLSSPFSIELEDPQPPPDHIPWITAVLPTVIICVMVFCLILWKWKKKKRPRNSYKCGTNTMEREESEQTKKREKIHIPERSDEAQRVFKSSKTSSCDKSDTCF

[11] = molecular target: T7, human B7-H2, full length, expressed on cells (B7-H2+293T cells) (human, UniProt O75144 19-302); test: as above
T7 construct: This id also stands for endogenous B7-H2 on monocyte-derived dendritic cells in the functional rows; also called ICOSL; ICOSLG
T7 sequence: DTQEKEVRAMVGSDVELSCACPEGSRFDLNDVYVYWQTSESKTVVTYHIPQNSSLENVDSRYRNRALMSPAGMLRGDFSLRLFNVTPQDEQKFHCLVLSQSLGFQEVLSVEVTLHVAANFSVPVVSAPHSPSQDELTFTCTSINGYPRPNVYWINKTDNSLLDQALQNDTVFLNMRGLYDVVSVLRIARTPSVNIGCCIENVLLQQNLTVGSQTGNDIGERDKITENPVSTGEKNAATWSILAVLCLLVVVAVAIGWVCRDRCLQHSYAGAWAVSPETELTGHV

[12] = molecular target: T8, human B7-1 (CD80) expressed on 293T cells (human, UniProt P33681 35-288); test: as above
T8 construct: whole, on cells
T8 sequence (looked up): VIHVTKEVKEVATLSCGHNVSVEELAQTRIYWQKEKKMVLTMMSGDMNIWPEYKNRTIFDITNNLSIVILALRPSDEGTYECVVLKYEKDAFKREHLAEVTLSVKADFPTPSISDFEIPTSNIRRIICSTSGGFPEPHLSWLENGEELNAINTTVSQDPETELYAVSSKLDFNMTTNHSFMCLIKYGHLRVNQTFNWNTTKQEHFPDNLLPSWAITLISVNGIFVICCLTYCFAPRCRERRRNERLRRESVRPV

[13] = molecular target: T9, human B7-DC expressed on 293T cells (human, UniProt Q9BQ51 20-273); test: as above
T9 construct: whole, on cells
T9 sequence (looked up): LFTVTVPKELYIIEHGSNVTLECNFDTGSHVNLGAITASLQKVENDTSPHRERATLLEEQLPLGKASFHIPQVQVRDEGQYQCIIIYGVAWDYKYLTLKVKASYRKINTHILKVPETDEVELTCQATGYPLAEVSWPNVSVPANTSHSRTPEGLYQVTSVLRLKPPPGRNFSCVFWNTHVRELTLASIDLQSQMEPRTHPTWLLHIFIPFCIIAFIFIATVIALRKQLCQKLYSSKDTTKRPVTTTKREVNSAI

[14] = molecular target: T10, human B7-H1 expressed on 293T cells (human, UniProt Q9NZQ7 19-290); test: as above
T10 construct: whole, on cells
T10 sequence (Q9NZQ7 19-290): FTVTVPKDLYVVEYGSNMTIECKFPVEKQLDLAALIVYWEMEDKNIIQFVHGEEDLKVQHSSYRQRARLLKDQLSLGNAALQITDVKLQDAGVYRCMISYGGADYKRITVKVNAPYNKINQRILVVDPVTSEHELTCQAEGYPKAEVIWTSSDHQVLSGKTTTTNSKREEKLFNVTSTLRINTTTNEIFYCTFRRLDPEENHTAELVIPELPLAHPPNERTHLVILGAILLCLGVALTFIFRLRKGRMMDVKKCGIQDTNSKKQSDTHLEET

B1: ICOSIg (Fc fusion, Mus musculus, UniProt Q9WVS0 21-144, looked up)
fusion protein: EINGSADHRMFSFHNGGVQISCKYPETVQQLKMRLFREREVLCELTKTKGSGNAVSIKNPMLCLYHLSNNSVSFFLNNPDSSQGSYYFCSLSIFDPPPFQERNLSGGYLHIYESQLCCQLKLWL
notes: Ig fusion protein purchased from R&D systems; also called mouse ICOSIg fusion protein
**Q.** Which results are given for B1?
**A.** binding result [1]: no binding; binding result [2]: no binding; binding result [3]: no binding; binding result [4]: no binding; binding result [5]: binds; binding result [6]: no binding; binding result [7]: no binding

**Q.** Does B2 bind [8]?
**A.** Result: no binding

**Q.** Does B2 bind [9]?
**A.** Result: no binding

B3: human B7-1Ig fusion protein (Fc fusion, UniProt P33681 35-242, looked up)
chain: VIHVTKEVKEVATLSCGHNVSVEELAQTRIYWQKEKKMVLTMMSGDMNIWPEYKNRTIFDITNNLSIVILALRPSDEGTYECVVLKYEKDAFKREHLAEVTLSVKADFPTPSISDFEIPTSNIRRIICSTSGGFPEPHLSWLENGEELNAINTTVSQDPETELYAVSSKLDFNMTTNHSFMCLIKYGHLRVNQTFNWNTTKQEHFPDN
notes: Bought from R&D Systems; Ig (Fc) part not given
**Q.** What does the source list for B3?
**A.** binding result [10]: no binding; binding result [11]: no binding; binding result [12]: no binding; binding result [13]: no binding

B4: B7-H2Ig (Fc fusion, Mus musculus, UniProt Q9JHJ8 47-279, looked up)
fusion protein: ETEVGAMVGSNVVLSCIDPHRRHFNLSGLYVYWQIENPEVSVTYYLPYKSPGINVDSSYKNRGHLSLDSMKQGNFSLYLKNVTPQDTQEFTCRVFMNTATELVKILEEVVRLRVAANFSTPVISTSDSSNPGQERTYTCMSKNGYPEPNLYWINTTDNSLIDTALQNNTVYLNKLGLYDVISTLRLPWTSRGDVLCCVENVALHQNITSISQAESFTGNNTKNPQETHNNELK
notes: Ig fusion protein purchased from R&D systems; also called mouse B7-H2Ig fusion protein
**Q.** Does B4 bind [3]?
**A.** Result: no binding

**Q.** Does B4 bind [4]?
**A.** Result: no binding

**Q.** Does B4 bind [5]?
**A.** Result: no binding

B5: human B7-H2Ig fusion protein (Fc fusion)
chain: DTQEKEVRAMVGSDVELSCACPEGSRFDLNDVYVYWQTSESKTVVTYHIPQNSSLENVDSRYRNRALMSPAGMLRGDFSLRLFNVTPQDEQKFHCLVLSQSLGFQEVLSVEVTLHVAANFSVPVVSAPHSPSQDELTFTCTSINGYPRPNVYWINKTDNSLLDQALQNDTVFLNMRGLYDVVSVLRIARTPSVNIGCCIENVLLQQNLTVGSQTGNDIGERDKITENPVSTGEKNAATWS
notes: Ig (Fc) part not given
**Q.** What does the source list for B5?
**A.** binding result [10]: no binding; binding result [11]: no binding; binding result [12]: no binding; binding result [14]: no binding; binding result [13]: no binding

**Q.** Does B6 bind [3]?
**A.** Result: binds

**Q.** Does B6 bind [4]?
**A.** Result: no binding

**Q.** Does B6 bind [5]?
**A.** Result: no binding

**Q.** Does B6 bind [7]?
**A.** Result: no binding

B7: PD-1Ig (Fc fusion, Mus musculus, UniProt Q02242 25-167, looked up)
fusion protein: LEVPNGPWRSLTFYPAWLTVSEGANATFTCSLSNWSEDLMLNWNRLSPSNQTEKQAAFCNGLSQPVQDARFQIIQLPNRHDFHMNILDTRRNDSGIYLCGAISLHPKAKIEESPGAELVVTERILETSTRYPSPSPKPEGRFQ
notes: Ig fusion protein purchased from R&D systems; also called mouse PD-1Ig fusion protein
**Q.** Which results are given for B7?
**A.** binding result [1]: no binding; binding result [2]: no binding; binding result [3]: no binding; binding result [4]: binds; binding result [5]: no binding; binding result [6]: no binding; binding result [7]: binds
